Measurements taken from US20180282410A1 (Hoffmann-La Roche, published 2018).

What was measured:
[1] = biological target: T1, biotinylated ectodomain of human Robo 4 with C-terminal AcTEV protease site, Avi-tag and 6xHis-tag (human, biotin on the Avi-tag (in vivo biotinylated via co-expression of BirA)); assay: SPR, BioRad ProteOn XPR36, purified Fab, monovalent affinity; human Robo 4; Fab, monovalent affinity
T1 construct: also called biotinylated human Robo 4
T1 chain: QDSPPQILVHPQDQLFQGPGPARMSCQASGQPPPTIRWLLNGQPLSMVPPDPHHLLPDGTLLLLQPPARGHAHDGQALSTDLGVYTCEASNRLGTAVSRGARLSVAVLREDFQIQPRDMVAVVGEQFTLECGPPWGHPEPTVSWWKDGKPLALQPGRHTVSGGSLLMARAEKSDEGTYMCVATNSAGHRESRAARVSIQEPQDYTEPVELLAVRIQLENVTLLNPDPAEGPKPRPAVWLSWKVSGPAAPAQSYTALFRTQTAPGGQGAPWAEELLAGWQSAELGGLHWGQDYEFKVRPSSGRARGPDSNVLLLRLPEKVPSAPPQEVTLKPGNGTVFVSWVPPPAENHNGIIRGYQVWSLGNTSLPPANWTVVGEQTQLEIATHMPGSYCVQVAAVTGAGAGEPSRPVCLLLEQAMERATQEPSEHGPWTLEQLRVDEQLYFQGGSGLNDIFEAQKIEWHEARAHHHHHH

[2] = biological target: T2, recombinant cynomolgus Robo 4 ECD fused to AcTEV protease recognition site, Avi- and 6xHis-tag (cynomolgus); assay: SPR, BioRad ProteOn XPR36, purified Fab, monovalent affinity; cynomolgus Robo 4; Fab, monovalent affinity
T2 construct: Biotinylated in the avidity assay
T2 chain: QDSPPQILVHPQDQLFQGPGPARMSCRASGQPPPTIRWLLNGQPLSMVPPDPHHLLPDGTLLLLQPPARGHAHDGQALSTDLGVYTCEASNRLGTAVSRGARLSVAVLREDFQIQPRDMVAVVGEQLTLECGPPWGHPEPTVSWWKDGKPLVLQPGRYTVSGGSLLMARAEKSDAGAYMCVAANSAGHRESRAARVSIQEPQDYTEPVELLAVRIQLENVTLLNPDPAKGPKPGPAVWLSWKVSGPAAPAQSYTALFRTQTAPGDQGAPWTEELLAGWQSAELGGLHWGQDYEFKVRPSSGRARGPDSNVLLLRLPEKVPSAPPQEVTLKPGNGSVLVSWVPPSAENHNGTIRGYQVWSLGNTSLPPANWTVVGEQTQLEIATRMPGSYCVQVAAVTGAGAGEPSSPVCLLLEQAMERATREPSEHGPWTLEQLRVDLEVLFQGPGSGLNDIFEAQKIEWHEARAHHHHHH

[3] = biological target: T3, murine (mu) Robo 4 ECD-PreS-Avi-His (mouse); assay: SPR, BioRad ProteOn XPR36, purified Fab
T3 construct: also called recombinant murine Robo 4; murine Robo 4
T3 chain: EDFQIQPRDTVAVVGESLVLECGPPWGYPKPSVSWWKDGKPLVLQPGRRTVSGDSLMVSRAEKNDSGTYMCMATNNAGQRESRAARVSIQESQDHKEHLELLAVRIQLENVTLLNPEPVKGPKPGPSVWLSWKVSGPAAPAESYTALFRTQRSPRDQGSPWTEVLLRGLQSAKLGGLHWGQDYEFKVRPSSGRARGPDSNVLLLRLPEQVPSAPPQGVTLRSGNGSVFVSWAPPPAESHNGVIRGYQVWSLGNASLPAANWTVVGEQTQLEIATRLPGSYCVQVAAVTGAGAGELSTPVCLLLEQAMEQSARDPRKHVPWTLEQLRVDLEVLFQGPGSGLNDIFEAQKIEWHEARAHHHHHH

B1: 7G2 Fab (phage display clone, bacterially expressed) (Fab, V domains shown)
VH: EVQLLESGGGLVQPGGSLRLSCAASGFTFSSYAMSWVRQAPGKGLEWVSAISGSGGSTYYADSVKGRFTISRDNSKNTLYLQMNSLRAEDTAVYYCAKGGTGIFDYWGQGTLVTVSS
VL: EIVLTQSPGTLSLSPGERATLSCRASQSVSSSYLAWYQQKPGQAPRLLIYGASSRATGIPDRFSGSGSGTDFTLTISRLEPEDFAVYYCQQGQLPPRTFGQGTKVEIK
notes: also called clone 7G2
With B1 the Kd [1] was 14.9 nM, the Kd [2] was 20.5 nM and the binding result [3] was “no binding”.
